Reference: the supplement of paper PMC7877785
± gives the uncertainty stated by the source.

Assay: self-splicing fitness, log relative to wild type (ln ratio); higher = more splicing; Tetrahymena group I intron in knt gene, E. coli kanamycin selection, DiMSum; sequences stand for … in CUCUCU…GGAGGGAAAAGUUAUCAGGCAUGCACCUGGUAGCUAGUCUUUAAACCAAUAGAUUGCAUCGGUUUAAAAGGCAAGACCGUCAAAUUGCGGGAAAGGGGUCAACAGCCGUUCAGUACCAAGUCUCAGGGGAAACUUUGAGAUGGCCUUGCAAAGGGUAUGGUAAUAAGCUGACGGACAUGGUCCUAACCACGCAGCCAAGUCCUAAGUCAACAGAUCUUCUGUUGAUAUGGAUGCAGUUCACAGACUAAAUGUCGGUCGGGGAAGAUGUAUUCUUCUCAUAAGAUAUAGUCGGACCUCUCCUUAAUGGGAGCUAGCGGAUGAAGUGAUGCAACACUGGAGCCGCUGGGAACUAAUUUGUAUGCGAAAGUAUAUUGAUUAGUUUUGGAGUACUCGUGGUCG
Procedure, shortened: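 A randomised library covering all eight P1ex-region intron nucleotides was built with the intron in the knt kanamycin-resistance gene on pET-22b(+) and held in E. coli BL21(DE3). Cells were grown overnight at 37°C or 30°C on LB agar, with or without 25 μg/mL kanamycin, plus 100 μg/mL carbenicillin, 50 μM IPTG and 0.2% rhamnose, and pooled colonies were amplicon-sequenced on an Illumina HiSeq 2500. DiMSum fitness is the error-weighted combination of wild-type-normalised replicate fold changes, kanamycin versus none.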

Sequence	self-splicing fitness (ln) (30 °C)	self-splicing fitness (ln) (37 °C)
CACCAGCAAUAUUACGGAGG	-1.85 ± 0.078	-1.4 ± 0.11
CACCAGCAAUAUUACGGAUC	-1.96 ± 0.08	-1.32 ± 0.094
CACCAGCAAUAUUACGGCAG	-0.179 ± 0.045	-0.218 ± 0.063
CACCAGCAAUAUUACGGCCA	-0.747 ± 0.067	-1.22 ± 0.082
CACCAGCAAUAUUACGGCUA	-1.1 ± 0.083	-0.202 ± 0.074
CACCAGCAAUAUUACGGCUG	-3.78 ± 0.13	-1.29 ± 0.083
CACCAGCAAUAUUACGUCCC	-4.07 ± 0.31	-2.79 ± 0.32
CACCAGCAAUAUUACGUCGU	-3.78 ± 0.13	-1.83 ± 0.097
CACCAGCAAUAUUACGUCUC	-2.89 ± 0.13	-2.38 ± 0.21
CACCAGCAAUAUUACGUGAA	-4.03 ± 0.14	-0.875 ± 0.096
CACCAGCAAUAUUACGUGCU	-3.4 ± 0.11	-2.7 ± 0.15
CACCAGCAAUAUUACGUUGG	-4.24 ± 0.13	-2.74 ± 0.13
CACCAGCAAUAUUACGUUUC	-4.36 ± 0.19	-2.58 ± 0.22
CACGAGCAAUAUUACGAACC		-1.7 ± 0.32
CACGAGCAAUAUUACGAACU		-1.72 ± 0.38
CACGAGCAAUAUUACGACAC	-2.84 ± 0.23	-2.18 ± 0.3
CACGAGCAAUAUUACGAGGA	-2.27 ± 0.15	-2.68 ± 0.16
CACGAGCAAUAUUACGAUCC		-1.9 ± 0.47
CACGAGCAAUAUUACGAUCU		-1.99 ± 0.27
CACGAGCAAUAUUACGCAGU	-3.4 ± 0.31	-3.5 ± 0.37
CACGAGCAAUAUUACGCAUG	-3.6 ± 0.11	-2.74 ± 0.15
CACGAGCAAUAUUACGCGGC		-1.38 ± 0.22
CACGAGCAAUAUUACGCGUA	-2.23 ± 0.12	-1.28 ± 0.15
CACGAGCAAUAUUACGCUCG	-4.11 ± 0.39	-1.3 ± 0.22
CACGAGCAAUAUUACGGCGC		-1.73 ± 0.4

Sequence	self-splicing fitness (ln) (30 °C)	self-splicing fitness (ln) (37 °C)
CACGAGCAAUAUUACGGUUG	-3.57 ± 0.15	-1.6 ± 0.12
CACGAGCAAUAUUACGUAGA	-2.34 ± 0.095	-3.42 ± 0.29
CACGAGCAAUAUUACGUCAU	-3.65 ± 0.19	-2.49 ± 0.21
CACGAGCAAUAUUACGUCUU	-2.89 ± 0.22	-2.82 ± 0.24
CACGAGCAAUAUUACGUUCA	-2.99 ± 0.18	-2.49 ± 0.24
CACGAGCAAUAUUACGUUCC	-2.89 ± 0.34	-2.15 ± 0.34
CACGAGCAAUAUUACGUUGG	-3.11 ± 0.16	-1.79 ± 0.14
CACGAGCAAUAUUACGUUGU	-3.37 ± 0.15	-2.8 ± 0.18
CACUAGCAAUAUUACGAAUG	-1.7 ± 0.075	-1.01 ± 0.086
CACUAGCAAUAUUACGAGGA	-4.01 ± 0.31	-1.49 ± 0.15
CACUAGCAAUAUUACGAUUU	-2.4 ± 0.12	-2.2 ± 0.15
CACUAGCAAUAUUACGCCGA	-2.8 ± 0.21	-1.49 ± 0.17
CACUAGCAAUAUUACGCGCC	-2.9 ± 0.23	-1.22 ± 0.22
CACUAGCAAUAUUACGCGGG	-2.48 ± 0.13	-2.01 ± 0.15
CACUAGCAAUAUUACGCUGU	-3.17 ± 0.14	-3.3 ± 0.23
CACUAGCAAUAUUACGGAUU	-4.22 ± 0.2	-2.28 ± 0.12
CACUAGCAAUAUUACGGCCA	-3.1 ± 0.23	
CACUAGCAAUAUUACGGCCG	0.0261 ± 0.086	-0.0313 ± 0.12
CACUAGCAAUAUUACGGGAC	-3.86 ± 0.21	-1.7 ± 0.18
CACUAGCAAUAUUACGGGGA	-2.57 ± 0.19	-1.63 ± 0.17
CACUAGCAAUAUUACGGGGC	-3.4 ± 0.17	-2.23 ± 0.14
CACUAGCAAUAUUACGUACU	-2.87 ± 0.16	-2.81 ± 0.19
CACUAGCAAUAUUACGUCAA	-3.77 ± 0.22	-2.27 ± 0.14
CACUAGCAAUAUUACGUCCG	-0.0671 ± 0.11	0.268 ± 0.13
CACUAGCAAUAUUACGUGAU	-3.32 ± 0.12	-3.21 ± 0.15

Sequence	self-splicing fitness (ln) (30 °C)	self-splicing fitness (ln) (37 °C)
CACUAGCAAUAUUACGUUCG	0.203 ± 0.084	0.725 ± 0.11
CACUAGCAAUAUUACGUUGU	-4.22 ± 0.14	-2.08 ± 0.12
CACUAGCAAUAUUACGUUUU	-2.97 ± 0.12	-2.4 ± 0.13
CAGAAGCAAUAUUACGAAGG	-1.23 ± 0.12	-1.1 ± 0.16
CAGAAGCAAUAUUACGACGC	-3 ± 0.14	-1.28 ± 0.12
CAGAAGCAAUAUUACGAGGA	-4.09 ± 0.4	-2.01 ± 0.2
CAGAAGCAAUAUUACGAGGU	-4.11 ± 0.36	-3 ± 0.32
CAGAAGCAAUAUUACGAUAG	-0.588 ± 0.075	0.256 ± 0.093
CAGAAGCAAUAUUACGCAAG	-2.45 ± 0.098	-1.21 ± 0.092
CAGAAGCAAUAUUACGCCUA	-0.835 ± 0.12	-0.744 ± 0.093
CAGAAGCAAUAUUACGCGAA		-1.94 ± 0.23
CAGAAGCAAUAUUACGCGUG	-4.79 ± 0.27	-2.62 ± 0.12
CAGAAGCAAUAUUACGCUAU	-3.4 ± 0.16	-3.04 ± 0.16
CAGAAGCAAUAUUACGGAUU	-3.13 ± 0.12	-2.47 ± 0.14
CAGAAGCAAUAUUACGGCGA	-1.43 ± 0.15	-1.5 ± 0.18
CAGAAGCAAUAUUACGGCGG	-0.0667 ± 0.084	-0.292 ± 0.12
CAGAAGCAAUAUUACGGGAG	-1.6 ± 0.12	-0.856 ± 0.12
CAGAAGCAAUAUUACGGGGA	-4.87 ± 0.36	-1.61 ± 0.11
CAGAAGCAAUAUUACGGGGU	-2.98 ± 0.19	-2.34 ± 0.21
CAGAAGCAAUAUUACGGUAG	-0.817 ± 0.065	-0.323 ± 0.08
CAGAAGCAAUAUUACGGUCC	-2.94 ± 0.33	
CAGAAGCAAUAUUACGUACG	-0.111 ± 0.089	0.665 ± 0.14
CAGAAGCAAUAUUACGUAUC		-3.17 ± 0.24
CAGAAGCAAUAUUACGUCAC	-3.02 ± 0.36	-1.05 ± 0.25
CAGAAGCAAUAUUACGUGCU	-2.7 ± 0.17	-1.23 ± 0.14

Sequence	self-splicing fitness (ln) (30 °C)	self-splicing fitness (ln) (37 °C)
CAGAAGCAAUAUUACGUGGA	-2.71 ± 0.18	-3.1 ± 0.2
CAGAAGCAAUAUUACGUGUU	-4.1 ± 0.18	-3.45 ± 0.16
CAGAAGCAAUAUUACGUUAG	-0.919 ± 0.077	-0.262 ± 0.097
CAGCAGCAAUAUUACGAAAC	-3.65 ± 0.23	
CAGCAGCAAUAUUACGACCU	-2.57 ± 0.14	-1.57 ± 0.12
CAGCAGCAAUAUUACGAGCA	-2.5 ± 0.12	-1.04 ± 0.093
CAGCAGCAAUAUUACGAUCC	-2.11 ± 0.22	-2.73 ± 0.4
CAGCAGCAAUAUUACGAUGA	-2.7 ± 0.21	-1.31 ± 0.14
CAGCAGCAAUAUUACGAUUC	-3.27 ± 0.25	-1.78 ± 0.16
CAGCAGCAAUAUUACGCACC	-2.66 ± 0.29	-1.32 ± 0.47
CAGCAGCAAUAUUACGCAGA	-2.32 ± 0.28	-1.19 ± 0.13
CAGCAGCAAUAUUACGCAGU	-3.81 ± 0.18	-3.35 ± 0.22
CAGCAGCAAUAUUACGCAUG	-3.11 ± 0.16	-2.42 ± 0.16
CAGCAGCAAUAUUACGCCAA	-3.43 ± 0.32	-1.87 ± 0.17
CAGCAGCAAUAUUACGCCGU	-2.74 ± 0.22	-2.41 ± 0.28
CAGCAGCAAUAUUACGCUAG	-2.8 ± 0.16	-2.1 ± 0.21
CAGCAGCAAUAUUACGGAAG	-0.307 ± 0.054	-0.29 ± 0.068
CAGCAGCAAUAUUACGGAGA	-3.3 ± 0.31	-3.02 ± 0.22
CAGCAGCAAUAUUACGGAUA	-3.18 ± 0.24	-2.41 ± 0.17
CAGCAGCAAUAUUACGGGAG	-1.2 ± 0.061	-0.908 ± 0.082
CAGCAGCAAUAUUACGGUAG	-0.155 ± 0.087	0.0584 ± 0.11
CAGCAGCAAUAUUACGGUUC	-2.92 ± 0.26	-1.5 ± 0.17
CAGCAGCAAUAUUACGUAUG	-2.19 ± 0.1	-2.5 ± 0.15
